{"source": "paper PMC3036151", "about": "“Cloning and endogenous expression of a Eucalyptus grandis UDP-glucose dehydrogenase cDNA” (Genetics and Molecular Biology, 2010)", "key": {"[1]": {"substrate": "O=c1ccn([C@@H]2O[C@H](CO[P@@](=O)(O)O[P@@](=O)(O)O[C@H]3O[C@H](CO)[C@@H](O)[C@H](O)[C@H]3O)[C@@H](O)[C@H]2O)c(=O)[nH]1", "experiment": "purified protein", "format": "biochemical, Eucalyptus grandis", "details": "NAD+ saturating (1 mM), 20 mM Tris-HCl pH 8.0, 2 mM MgCl2, 30 °C, panel letters in text and Figure 3 caption are swapped"}, "[2]": {"substrate": "NC(=O)c1ccc[n+]([C@@H]2O[C@H](COP(=O)(O)OP(=O)(O)OC[C@H]3O[C@@H](n4cnc5c(N)ncnc54)[C@H](O)[C@@H]3O)[C@@H](O)[C@H]2O)c1", "experiment": "purified protein", "format": "biochemical, Eucalyptus grandis", "details": "UDP-glucose saturating (1 mM), 20 mM Tris-HCl pH 8.0, 2 mM MgCl2, 30 °C, panel letters in text and Figure 3 caption are swapped, varied: cofactor"}}}
{"protein": "UDP-glucose dehydrogenase (UGDH), Poly-His-Tagged eucalyptus UDP-GDH, UDP-GlucDH (Eucalyptus grandis) (protein, full-length ORF (1443 bp, 480 residues, about 53 kDa) from cambial-region cDNA, N-terminal 6xHis tag (pDEST17) kept, E. coli BL21-AI; cDNA ends set by degenerate primers) MVKICCIGAGYVGGPTMAVIALKCPSVEVAVVDISVSRIQAWNSEQLPIYEPGLDAVVKQCRGKNLFFSTDVEKHVFEADIVFVSVNTPTKTRGLGAGKAADLTYWESAARMIADVSKSDKIVVEKSTVPVKTAEAIEKILTHNSKGIKFQILSNPEFLAEGTAIQDLFAPDRVLIGGRETPEGQKAIQTLKDVYAHWVPEDRILTTNLWSAELSKLAANAFLAQRISSVNAMSSLCEATGADVAQVSYAVGKDSRIGPKFLNASVGFGGSCFQKDILNLVYICECNGLPEVAEYWKQVIKINDYQKARFVNRVVSSMFNTVSNKKIAILGFAFKKDTGDTRETPAIDVCKGLLGDKARLSIYDPQVTEEQIQRDLTMNKFDWDHPVHLQPMSPTTVKQVSVVWDAYDAVKDAHGLCILTEWDEFKTLDYQRIYDNMQKPAYIFDGRNVVNVNKLREIGFIVYSIGKPLDPWLKDMPAVA", "values": [{"measurement": "Km", "setting": "[1]", "value": "60.7 ± 8.5", "unit": "µM"}, {"measurement": "Km", "setting": "[2]", "value": "67.3 ± 17.9", "unit": "µM"}]}
